This note sets out measurements from the supplement of paper PMC9732359.

± gives the uncertainty stated by the source.

The nature of the data set: protein stability index of a GFP-peptide fusion (yeast GPS) (PSI 1-4); higher = more stable; sorted into four equal gates, so the index is relative within each strain. Put shortly: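 Tiled yeast protein peptides of 17 residues were each joined downstream of GFP, on plasmids that also express Cherry. The pooled library was maintained in yeast, and mid-log cultures in leucine-free medium were sorted into four equal gates on the GFP/Cherry ratio. Plasmids from every gate were amplified by PCR and sequenced on Illumina, with barcodes linking reads to strains. The protein stability index of a peptide is its gate-number-weighted read frequency summed over the gates.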

With LEFSIYHRLSNKDMIKN [CSN12], the protein stability index by setting is: (doa10∆) 2.36 ± 0.096; (pdr5∆) 2.91 ± 0.13; (san1∆) 2.36 ± 0.18; (ubr1∆) 2.79 ± 0.15.

For the sequence ESKDLLRASFNKLSSIL [SRB4], the protein stability index reads like this: (doa10∆) 1.08 ± 0.097; (pdr5∆) 1.33 ± 0.074; (san1∆) 1.22 ± 0.16; (ubr1∆) 1.1 ± 0.094.

Consider QSISQNSSSSTPNTNSN [SWI1], for which the protein stability index is 2.73 ± 0.055 (doa10∆), 2.8 ± 0.049 (pdr5∆), 2.9 ± 0.051 (san1∆) and 2.82 ± 0.048 (ubr1∆).

As for WDYLQLTVAMYINSDSV [RPO31], the protein stability index is, setting by setting: (doa10∆) 1.32 ± 0.071; (pdr5∆) 1.34 ± 0.086; (san1∆) 1.64 ± 0.25; (ubr1∆) 1.58 ± 0.071.

The sequence AEGQTNSISDFLGEQVN [RPN1] yielded a protein stability index (doa10∆) of 3.06 ± 0.079, a protein stability index (pdr5∆) of 2.89 ± 0.067, a protein stability index (san1∆) of 2.98 ± 0.077 and a protein stability index (ubr1∆) of 3.12 ± 0.059.

For the sequence IKEDIKKQPSILVGGTL [SNF2], the protein stability index by setting is: (doa10∆) 1.93 ± 0.084; (pdr5∆) 2.15 ± 0.12; (san1∆) 2.92 ± 0.12; (ubr1∆) 3.27 ± 0.14.

GKDLSPAINYTKLKNAV [QCR2]: the protein stability index was found to be 1.91 ± 0.064 (doa10∆), 1.64 ± 0.06 (pdr5∆), 2.15 ± 0.094 (san1∆) and 1.54 ± 0.048 (ubr1∆).

Take RYANKRFRKAQCPIIER [RPS5]: the protein stability index reads like this: (doa10∆) 2.34 ± 0.16; (pdr5∆) 2.12 ± 0.14; (ubr1∆) 1.5 ± 0.054.

As to INSGTNSANGSSLNGTN [SSN3], the protein stability index stood at 2.55 ± 0.056 (doa10∆), 2.75 ± 0.055 (pdr5∆), 2.82 ± 0.05 (san1∆) and 2.7 ± 0.041 (ubr1∆).

Regarding FNPYGDNGGTILGIAGE [PRE7], the protein stability index is 3.37 ± 0.1 (doa10∆), 3.24 ± 0.11 (pdr5∆), 3.24 ± 0.16 (san1∆) and 3.28 ± 0.064 (ubr1∆).

With AGSGSTFIYGYCDKNFR [PRE3], the protein stability index was 1.24 ± 0.085 (doa10∆), 1.42 ± 0.057 (pdr5∆), 1.51 ± 0.099 (san1∆) and 1.49 ± 0.059 (ubr1∆).

FLDGIYVSHKGFIVEDM [RPL9B]: the protein stability index (doa10∆) amounted to 2.24 ± 0.13, the protein stability index (pdr5∆) was 2.86 ± 0.074, the protein stability index (san1∆) is 2.74 ± 0.087 and the protein stability index (ubr1∆) was determined as 2.66 ± 0.13.

As to QDDIDEMVENSSENNQI [SRP68], the protein stability index runs as follows: (doa10∆) 3.35 ± 0.1; (pdr5∆) 3.25 ± 0.11; (san1∆) 2.97 ± 0.14; (ubr1∆) 3.35 ± 0.088.

As to MPFNDQGIVPDIIMNPH [RET1], the protein stability index reads like this: (doa10∆) 2.71 ± 0.075; (pdr5∆) 2.92 ± 0.059; (san1∆) 2.87 ± 0.052; (ubr1∆) 3.09 ± 0.042.

In the case of IFNDILAHVDQIVDIRN [YJL039C/NUP192], the protein stability index was 2.83 ± 0.1 (doa10∆), 2.64 ± 0.18 (pdr5∆), 2.97 ± 0.082 (san1∆) and 2.9 ± 0.076 (ubr1∆).

Turning to VIWSEDNDEKLIIRCRV [RPO21], the protein stability index is, setting by setting: (doa10∆) 3.34 ± 0.15; (pdr5∆) 2.96 ± 0.19; (san1∆) 3.53 ± 0.088; (ubr1∆) 2.84 ± 0.19.

Regarding QKIVVVRAEELNISGEF [RPL16A], the protein stability index runs as follows: (doa10∆) 3.64 ± 0.2; (pdr5∆) 3.06 ± 0.21; (san1∆) 3.17 ± 0.16; (ubr1∆) 3.28 ± 0.19.

Take LQAIQEKLNKTDENTPS [ITC1]: the protein stability index is, setting by setting: (doa10∆) 3.12 ± 0.098; (pdr5∆) 3.08 ± 0.061; (san1∆) 2.98 ± 0.047; (ubr1∆) 2.89 ± 0.043.

For the sequence NSAQNNSTTSGGLFGNK [YGR119C/NUP57], the protein stability index stood at 3.25 ± 0.13 (doa10∆), 2.91 ± 0.13 (pdr5∆), 3.2 ± 0.073 (san1∆) and 3.24 ± 0.17 (ubr1∆).

LKHTDYWYEQDSAKEWP [RPB3]: the protein stability index amounted to 3.18 ± 0.15 (doa10∆), 3.31 ± 0.13 (pdr5∆) and 2.36 ± 0.21 (san1∆).

In turn, AHFWKPVLNLDKLWTLI [RPL28] came in with a protein stability index (doa10∆) of 2.22 ± 0.045, a protein stability index (pdr5∆) of 2.3 ± 0.047, a protein stability index (san1∆) of 2.09 ± 0.071 and a protein stability index (ubr1∆) of 1.65 ± 0.032.

In the case of QPEDLEPAEANEENDLD [RPB2], the protein stability index reads like this: (doa10∆) 3.35 ± 0.17; (pdr5∆) 3.15 ± 0.19; (san1∆) 3.21 ± 0.13; (ubr1∆) 3.42 ± 0.16.

Take QSKEILKGLLQELKADS [SRP72]: the protein stability index amounted to 2.36 ± 0.17 (doa10∆), 2.13 ± 0.27 (pdr5∆), 2.75 ± 0.096 (san1∆) and 2.6 ± 0.11 (ubr1∆).

AMLAAQDVAAKCKEVGI [RPS14B] showed a protein stability index (doa10∆) of 2.36 ± 0.061, a protein stability index (pdr5∆) of 2.36 ± 0.065, a protein stability index (san1∆) of 1.99 ± 0.073 and a protein stability index (ubr1∆) of 1.96 ± 0.044.
